Measured values from patent US20150274845A1 (Hoffmann-La Roche, published 2015).

B1: (scFv)2 (antiMCSP/anti huCD3e) (bispecific antibody)
scFv: DIVLTQSPSSLSASLGDRVTISCSASQGIRNYLNWYQQRPDGTVKLLIYYTSSLHSGVPSRFSGSGSGTDYSLTISNLEPEDIATYYCQQYSKLPWTFGGGTKLEIKGGGGSGGGGSGGGGSEVQLQESGPGLVKPSQSLSLTCSVTGYSITSGYYWNWIRQFPGNKLEWMGYITYDGSNNYNPSLKNRISITRDTSKNQFFLKLNSVTTEDTATYYCADFDYWGQGTTLTVSSGGGGSEVQLVESGGGLVQPGGSLRLSCAASGYSFTGYTMNWVRQAPGKGLEWVALINPYKGVSTYNQKFKDRFTISVDKSKNTAYLQMNSLRAEDTAVYYCARSGYYGDSDWYFDVWGQGTLVTVSSVEGGSGGSGGSGGSGGVDDIQMTQSPSSLSASVGDRVTITCRASQDIRNYLNWYQQKPGKAPKLLIYYTSRLESGVPSRFSGSGSGTDYTLTISSLQPEDFATYYCQQGNTLPWTFGQGTKVEIKHHHHHH
B2: hu Fab (MCSP)-Crossfab (CD3) (bispecific antibody)
chain 1: EVQLQESGPGLVKPSQSLSLTCSVTGYSITSGYYWNWIRQFPGNKLEWMGYITYDGSNNYNPSLKNRISITRDTSKNQFFLKLNSVTTEDTATYYCADFDYWGQGTTLTVSSASTKGPSVFPLAPSSKSTSGGTAALGCLVKDYFPEPVTVSWNSGALTSGVHTFPAVLQSSGLYSLSSVVTVPSSSLGTQTYICNVNHKPSNTKVDKKVEPKSCDGGGGSGGGGSDIQMTQSPSSLSASVGDRVTITCRASQDIRNYLNWYQQKPGKAPKLLIYYTSRLESGVPSRFSGSGSGTDYTLTISSLQPEDFATYYCQQGNTLPWTFGQGTKVEIKSSASTKGPSVFPLAPSSKSTSGGTAALGCLVKDYFPEPVTVSWNSGALTSGVHTFPAVLQSSGLYSLSSVVTVPSSSLGTQTYICNVNHKPSNTKVDKKVEPKSC
light: DIVLTQSPSSLSASLGDRVTISCSASQGIRNYLNWYQQRPDGTVKLLIYYTSSLHSGVPSRFSGSGSGTDYSLTISNLEPEDIATYYCQQYSKLPWTFGGGTKLEIKRTVAAPSVFIFPPSDEQLKSGTASVVCLLNNFYPREAKVQWKVDNALQSGNSQESVTEQDSKDSTYSLSSTLTLSKADYEKHKVYACEVTHQGLSSPVTKSFNRGEC
chain 2: EVQLVESGGGLVQPGGSLRLSCAASGYSFTGYTMNWVRQAPGKGLEWVALINPYKGVSTYNQKFKDRFTISVDKSKNTAYLQMNSLRAEDTAVYYCARSGYYGDSDWYFDVWGQGTLVTVSSASVAAPSVFIFPPSDEQLKSGTASVVCLLNNFYPREAKVQWKVDNALQSGNSQESVTEQDSKDSTYSLSSTLTLSKADYEKHKVYACEVTHQGLSSPVTKSFNRGEC

Key:
[1] = biological target: human Melanoma-associated Chondroitin Sulfate Proteoglycan (MCSP) (human, UniProt Q6UVK1 30-2322); test: cell-based or functional assay
[2] = biological target: human CD3 T-Cell Co-Receptor (CD3) (human, UniProt P07766 23-207); test: cell-based or functional assay
Chain of human CD3 T-Cell Co-Receptor (CD3) (P07766 23-207): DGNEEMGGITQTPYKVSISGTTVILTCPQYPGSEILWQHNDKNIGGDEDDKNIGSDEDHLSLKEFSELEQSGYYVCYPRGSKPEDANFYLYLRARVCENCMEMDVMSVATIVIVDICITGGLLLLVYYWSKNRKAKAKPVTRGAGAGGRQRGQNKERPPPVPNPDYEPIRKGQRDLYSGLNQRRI

Chain of human Melanoma-associated Chondroitin Sulfate Proteoglycan (MCSP) (Q6UVK1 30-2322): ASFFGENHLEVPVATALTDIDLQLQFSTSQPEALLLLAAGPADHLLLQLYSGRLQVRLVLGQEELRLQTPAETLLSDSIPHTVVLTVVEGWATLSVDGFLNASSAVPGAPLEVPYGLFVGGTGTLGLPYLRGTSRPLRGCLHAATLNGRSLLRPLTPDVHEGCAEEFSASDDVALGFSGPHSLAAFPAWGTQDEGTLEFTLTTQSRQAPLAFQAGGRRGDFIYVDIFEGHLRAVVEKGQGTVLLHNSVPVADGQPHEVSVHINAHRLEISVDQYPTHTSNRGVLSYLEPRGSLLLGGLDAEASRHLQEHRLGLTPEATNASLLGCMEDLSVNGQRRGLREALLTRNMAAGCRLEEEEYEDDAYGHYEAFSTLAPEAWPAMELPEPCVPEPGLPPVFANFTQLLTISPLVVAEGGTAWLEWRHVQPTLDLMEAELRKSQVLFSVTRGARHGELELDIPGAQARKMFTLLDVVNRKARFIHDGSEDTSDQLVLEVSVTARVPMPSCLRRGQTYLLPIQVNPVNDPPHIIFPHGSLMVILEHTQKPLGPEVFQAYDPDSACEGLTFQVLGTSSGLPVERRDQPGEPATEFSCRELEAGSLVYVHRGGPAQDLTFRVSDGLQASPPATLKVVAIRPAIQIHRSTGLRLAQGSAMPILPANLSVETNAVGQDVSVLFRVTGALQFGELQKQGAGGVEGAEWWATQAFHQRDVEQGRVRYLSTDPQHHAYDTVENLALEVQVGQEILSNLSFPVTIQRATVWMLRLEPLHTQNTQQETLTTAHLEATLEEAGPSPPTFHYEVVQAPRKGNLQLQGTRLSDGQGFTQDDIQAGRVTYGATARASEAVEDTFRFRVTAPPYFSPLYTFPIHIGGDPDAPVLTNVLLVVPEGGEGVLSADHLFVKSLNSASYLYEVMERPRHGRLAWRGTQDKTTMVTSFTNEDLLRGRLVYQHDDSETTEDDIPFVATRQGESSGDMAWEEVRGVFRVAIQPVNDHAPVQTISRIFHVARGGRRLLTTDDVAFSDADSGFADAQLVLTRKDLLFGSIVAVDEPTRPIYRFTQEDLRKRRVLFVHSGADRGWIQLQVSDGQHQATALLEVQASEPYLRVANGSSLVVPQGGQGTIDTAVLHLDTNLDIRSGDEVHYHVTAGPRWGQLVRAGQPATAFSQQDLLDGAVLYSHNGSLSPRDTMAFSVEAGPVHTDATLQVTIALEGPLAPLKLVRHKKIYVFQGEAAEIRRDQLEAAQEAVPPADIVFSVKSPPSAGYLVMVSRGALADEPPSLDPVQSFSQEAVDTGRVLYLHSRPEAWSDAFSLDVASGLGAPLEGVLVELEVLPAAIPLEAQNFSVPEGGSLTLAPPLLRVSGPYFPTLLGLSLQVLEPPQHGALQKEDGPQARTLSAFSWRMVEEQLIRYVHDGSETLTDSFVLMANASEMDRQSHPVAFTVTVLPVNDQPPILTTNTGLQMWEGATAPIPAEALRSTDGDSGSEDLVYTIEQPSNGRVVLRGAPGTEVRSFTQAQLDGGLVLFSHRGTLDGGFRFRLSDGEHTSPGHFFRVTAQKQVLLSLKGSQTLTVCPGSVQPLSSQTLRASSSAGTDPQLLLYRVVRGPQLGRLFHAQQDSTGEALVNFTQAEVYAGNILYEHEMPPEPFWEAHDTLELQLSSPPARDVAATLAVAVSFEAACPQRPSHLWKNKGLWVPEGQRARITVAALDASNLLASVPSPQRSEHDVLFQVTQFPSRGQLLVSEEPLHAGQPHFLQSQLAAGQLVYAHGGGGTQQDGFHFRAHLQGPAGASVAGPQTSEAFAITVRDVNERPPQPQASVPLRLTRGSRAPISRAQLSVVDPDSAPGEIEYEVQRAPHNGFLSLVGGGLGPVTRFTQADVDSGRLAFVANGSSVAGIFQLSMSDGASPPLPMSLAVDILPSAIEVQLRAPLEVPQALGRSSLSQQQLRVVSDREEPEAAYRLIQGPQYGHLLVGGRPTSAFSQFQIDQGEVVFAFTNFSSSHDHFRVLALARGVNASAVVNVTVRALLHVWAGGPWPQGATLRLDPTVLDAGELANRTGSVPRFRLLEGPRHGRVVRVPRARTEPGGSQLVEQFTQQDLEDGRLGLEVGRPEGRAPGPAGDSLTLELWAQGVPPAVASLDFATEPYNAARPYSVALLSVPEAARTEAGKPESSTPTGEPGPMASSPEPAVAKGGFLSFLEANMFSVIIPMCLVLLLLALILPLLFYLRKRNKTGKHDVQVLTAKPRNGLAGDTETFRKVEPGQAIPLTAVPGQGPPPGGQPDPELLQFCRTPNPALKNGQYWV

Binder | EC50 of killing (LDH release) of MV-3 tumor cells, human PBMCs, E:T 10:1, 24 hours [1] [nM] | EC50 of killing (LDH release) of MV-3 tumor cells, human PBMCs, E:T 10:1, 24 hours [2] [nM]
B1 | 0.057 | 0.057
B2 | 0.0254 | 0.0254
